Target: T1, recombinant His-Strep tagged human Tyro3 extracellular domain (human, UniProt Q06418 41-429)
T1 construct: also called hTyro3 ECD; full Tyro3 ECD
T1 sequence: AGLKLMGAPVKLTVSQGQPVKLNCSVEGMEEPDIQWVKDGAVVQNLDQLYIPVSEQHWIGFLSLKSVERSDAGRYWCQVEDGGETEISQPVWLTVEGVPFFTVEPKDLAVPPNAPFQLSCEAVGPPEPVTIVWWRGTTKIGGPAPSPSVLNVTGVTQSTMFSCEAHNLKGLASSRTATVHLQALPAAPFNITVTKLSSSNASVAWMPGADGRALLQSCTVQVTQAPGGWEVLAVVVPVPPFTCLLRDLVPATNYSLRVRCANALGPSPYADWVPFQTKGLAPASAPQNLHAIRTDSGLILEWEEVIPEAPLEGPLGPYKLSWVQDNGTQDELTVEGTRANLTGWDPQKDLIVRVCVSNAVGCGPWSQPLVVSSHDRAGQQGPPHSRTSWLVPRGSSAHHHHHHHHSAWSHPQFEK
Experiment: sandwich ELISA, Strep-tagged hTyro3 ECD captured on StrepMAB plate, scFv 3-fold from 10 µg/mL, anti-FLAG-HRP
Experimental: A double sandwich ELISA was developed. This assay consisted in measuring the binding of the anti-Tyro3 antibodies to be tested on immobilized strep-tagged entire human Tyro3 ECD captured directly on ELISA plate pre-coated with an anti-strep mAb (StrepMAB-Immo coated microplates from IBA biotech). Briefly, the 96 wells of StrepMAB-Immo coated microplate were washed three times with 300 μL of the PBS Tween 0.2% (referred as ELISA washing solution). The capture of an excess of purified strep tagged hTyro3 ECD protein was achieved by a one hour incubation at room temperature. In these experiments, 3 μg of purified protein diluted in PBS, BSA 1% (referred as ELISA diluent solution) were immobilized per well. The wells were washed three times with 300 μL of the washing solution. The non-specific binding sites on the well surface were blocked during 60 min at room temperature with 200 μL/well of blocking solution (PBS, BSA 3%). The wells were washed five times with 300 μL of the washing solution. Then, 100 μl (in duplicates) of the different concentrations of anti-Tyro3 antibodies to be tested diluted in ELISA diluent solution, were added per well and allowed to incubate during 1 hour at room temperature. An Irrelevant control IgG2656 was also added in this experiment. For anti-Tyro3 antibodies in the ScFv format, experiments were performed with 6 concentrations in duplicates (FIG. 3A). […]

binding result: binds
B1: anti-Tyro3 scFv 2717 (scFv, V domains shown)
VH: EVQLVQSGADVKKPGASLTISCQASGYTFTDYWISWVRQKPGKGLEWMGEIFLPPSTTVYGPSFQGHVTISADRSTATAYLQWRSLEASDTAMYYCVRQTRLTSGGTIPEYYQHWGPGTLVTVSS
VL: SYELTQPPSVSVSPGQTARITCSGDALPKKYAYWYQQKSGQAPVLVIYEDNKRGSGIPERFSGSSSGTMATLTISGAQVEDEADYYCYSKSPEGNYMVFGGGTKLTVL
notes: Tested as a single-chain Fv made in E. coli

Reference: patent US20180105596A1 (ELSALYS BIOTECH, published 2018)
